Source: patent publication US20260049138A1 (Chugai, published 2026)
Residue numbers refer to the chain shown, from its start. Names may count otherwise.

B1: GLS3000 S25E one-arm antibody (antibody, human IgG1, kappa, L234A L235A, N297A, name in Kabat numbering)
heavy: QVQLVESGGGVVQPGRSLRLSCAASGFTFSNAWMHWVRQAPGKGLEWVAQIKAKSNNYATYYAESVKGRFTISRDDSKNSLYLQMNSLKTEDTAVYYCRYVHYGAYYGVDAWGQGTTVTVSSASTKGPSVFPLAPSSKSTSGGTAALGCLVKDYFPEPVTVSWNSGALTSGVHTFPAVLQSSGLYSLSSVVTVPSSSLGTQTYICNVNHKPSNTKVDKKVEPKSCDKTHTCPPCPAPEAAGGPSVFLFPPKPKDTLMISRTPEVTCVVVDVSHEDPEVKFNWYVDGVEVHNAKTKPREEQYASTYRVVSVLTVLHQDWLNGKEYKCKVSNKALPAPIEKTISKAKGQPREPQVYTLPPSRCELTKNQVSLSCAVKGFYPSDIAVEWESNGQPENNYKTTPPVLDSDGSFFLVSKLTVDKSRWQQGNVFSCSVMHEALHNHYTQKSLSLSPDYKDDDDK
chain: EPKSSDKTHTCPPCPAPELLGGPSVFLFPPKPKDTLMISRTPEVTCVVVDVSHEDPEVKFNWYVDGVEVHNAKTKPREEQYNSTYRVVSVLTVLHQDWLNGKEYKCKVSNKALPAPIEKTISKAKGQPREPQVCTLPPSRDELTKNQVSLWCLVKGFYPSDIAVEWESNGQPENNYKTTPPVLDSDGSFFLYSKLTVDKSRWQQGNVFSCSVMHEALHNRYTQKSLSLSP
light: DIVMTQSPLSLPVTPGEPASISCRESQSLVHSNRNTYLHWYQQKPGQAPRLLIYKVSNRFSGVPDRFSGSGSGTDFTLKISRVEAEDVGVYYCGQGTQVPYTFGQGTKLEIKRTVAAPSVFIFPPSDEQLKSGTASVVCLLNNFYPREAKVQWKVDNALQSGNSQESVTEQDSKDSTYSLSSTLTLSKADYEKHKVYACEVTHQGLSSPVTKSFNRGEC
B2: GLS3000 S27eP one-arm antibody (antibody, human IgG1, kappa, L234A L235A, N297A, name in Kabat numbering)
heavy: B1 heavy
chain: B1 chain
light: B1 light with E25S, S32P
B3: GLS3000 S27eD one-arm antibody (antibody, human IgG1, kappa, L234A L235A, N297A, name in Kabat numbering)
heavy: B1 heavy
chain: B1 chain
light: B1 light with E25S, S32D
B4: GLS3000 S27eI one-arm antibody (antibody, human IgG1, kappa, L234A L235A, N297A, name in Kabat numbering)
heavy: B1 heavy
chain: B1 chain
light: B1 light with E25S, S32I
B5: GLS3000 S27eG one-arm antibody (antibody, human IgG1, kappa, L234A L235A, N297A, name in Kabat numbering)
heavy: B1 heavy
chain: B1 chain
light: B1 light with E25S, S32G
B6: GLS3000 S27aN one-arm antibody (antibody, human IgG1, kappa, L234A L235A, N297A, name in Kabat numbering)
heavy: B1 heavy
chain: B1 chain
light: B1 light with E25S, S28N
B7: GLS3000 S27aY one-arm antibody (antibody, human IgG1, kappa, L234A L235A, N297A, name in Kabat numbering)
heavy: B1 heavy
chain: B1 chain
light: B1 light with E25S, S28Y
B8: GLS3000 S26D one-arm antibody (antibody, human IgG1, kappa, L234A L235A, N297A, name in Kabat numbering)
heavy: B1 heavy
chain: B1 chain
light: B1 light with E25S, S26D
B9: GLS3000 S27aG one-arm antibody (antibody, human IgG1, kappa, L234A L235A, N297A, name in Kabat numbering)
heavy: B1 heavy
chain: B1 chain
light: B1 light with E25S, S28G
B10: GLS3000 S27aP one-arm antibody (antibody, human IgG1, kappa, L234A L235A, N297A, name in Kabat numbering)
heavy: B1 heavy
chain: B1 chain
light: B1 light with E25S, S28P
B11: GLS3000 S27eA one-arm antibody (antibody, human IgG1, kappa, L234A L235A, N297A, name in Kabat numbering)
heavy: B1 heavy
chain: B1 chain
light: B1 light with E25S, S32A
B12: GLS3000 S25P one-arm antibody (antibody, human IgG1, kappa, L234A L235A, N297A, name in Kabat numbering)
heavy: B1 heavy
chain: B1 chain
light: B1 light with E25P
B13: GLS3000 S27eM one-arm antibody (antibody, human IgG1, kappa, L234A L235A, N297A, name in Kabat numbering)
heavy: B1 heavy
chain: B1 chain
light: B1 light with E25S, S32M
B14: GLS3000 S25M one-arm antibody (antibody, human IgG1, kappa, L234A L235A, N297A, name in Kabat numbering)
heavy: B1 heavy
chain: B1 chain
light: B1 light with E25M
B15: GLS3000 S26E one-arm antibody (antibody, human IgG1, kappa, L234A L235A, N297A, name in Kabat numbering)
heavy: B1 heavy
chain: B1 chain
light: B1 light with E25S, S26E
B16: GLS3000 S25I one-arm antibody (antibody, human IgG1, kappa, L234A L235A, N297A, name in Kabat numbering)
heavy: B1 heavy
chain: B1 chain
light: B1 light with E25I
B17: GLS3000 S27eN one-arm antibody (antibody, human IgG1, kappa, L234A L235A, N297A, name in Kabat numbering)
heavy: B1 heavy
chain: B1 chain
light: B1 light with E25S, S32N
B18: GLS3000 S27eK one-arm antibody (antibody, human IgG1, kappa, L234A L235A, N297A, name in Kabat numbering)
heavy: B1 heavy
chain: B1 chain
light: B1 light with E25S, S32K
B19: GLS3000 S27eR one-arm antibody (antibody, human IgG1, kappa, L234A L235A, N297A, name in Kabat numbering)
heavy: B1 heavy
chain: B1 chain
light: B1 light with E25S, S32R
B20: GLS3000 S25L one-arm antibody (antibody, human IgG1, kappa, L234A L235A, N297A, name in Kabat numbering)
heavy: B1 heavy
chain: B1 chain
light: B1 light with E25L
B21: GLS3000 S27eT one-arm antibody (antibody, human IgG1, kappa, L234A L235A, N297A, name in Kabat numbering)
heavy: B1 heavy
chain: B1 chain
light: B1 light with E25S, S32T
B22: GLS3000 S27eW one-arm antibody (antibody, human IgG1, kappa, L234A L235A, N297A, name in Kabat numbering)
heavy: B1 heavy
chain: B1 chain
light: B1 light with E25S, S32W
B23: GLS3000 S25V one-arm antibody (antibody, human IgG1, kappa, L234A L235A, N297A, name in Kabat numbering)
heavy: B1 heavy
chain: B1 chain
light: B1 light with E25V
B24: GLS3000 S26P one-arm antibody (antibody, human IgG1, kappa, L234A L235A, N297A, name in Kabat numbering)
heavy: B1 heavy
chain: B1 chain
light: B1 light with E25S, S26P
B25: GLS3000 S27eE one-arm antibody (antibody, human IgG1, kappa, L234A L235A, N297A, name in Kabat numbering)
heavy: B1 heavy
chain: B1 chain
light: B1 light with E25S, S32E
B26: GLS3000 S27aI one-arm antibody (antibody, human IgG1, kappa, L234A L235A, N297A, name in Kabat numbering)
heavy: B1 heavy
chain: B1 chain
light: B1 light with E25S, S28I
B27: GLS3000 S27eF one-arm antibody (antibody, human IgG1, kappa, L234A L235A, N297A, name in Kabat numbering)
heavy: B1 heavy
chain: B1 chain
light: B1 light with E25S, S32F
B28: GLS3000 S25T one-arm antibody (antibody, human IgG1, kappa, L234A L235A, N297A, name in Kabat numbering)
heavy: B1 heavy
chain: B1 chain
light: B1 light with E25T
B29: GLS3000 S27eV one-arm antibody (antibody, human IgG1, kappa, L234A L235A, N297A, name in Kabat numbering)
heavy: B1 heavy
chain: B1 chain
light: B1 light with E25S, S32V
B30: GLS3000 S27eL one-arm antibody (antibody, human IgG1, kappa, L234A L235A, N297A, name in Kabat numbering)
heavy: B1 heavy
chain: B1 chain
light: B1 light with E25S, S32L
B31: GLS3000 S27aE one-arm antibody (antibody, human IgG1, kappa, L234A L235A, N297A, name in Kabat numbering)
heavy: B1 heavy
chain: B1 chain
light: B1 light with E25S, S28E
B32: GLS3000 S27eH one-arm antibody (antibody, human IgG1, kappa, L234A L235A, N297A, name in Kabat numbering)
heavy: B1 heavy
chain: B1 chain
light: B1 light with E25S, S32H
B33: GLS3000 S27eQ one-arm antibody (antibody, human IgG1, kappa, L234A L235A, N297A, name in Kabat numbering)
heavy: B1 heavy
chain: B1 chain
light: B1 light with E25S, S32Q
B34: GLS3000 S27aD one-arm antibody (antibody, human IgG1, kappa, L234A L235A, N297A, name in Kabat numbering)
heavy: B1 heavy
chain: B1 chain
light: B1 light with E25S, S28D

Molecular target: T1, CD3ε homodimer protein (human, UniProt P07766 23-126, limits assumed)
T1 construct: also called CD3 (CD3ε)
Assay: SPR Biacore T200, CD3ε homodimer on chip;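 also: Light-chain single-residue variant antibodies injected over amine-coupled CD3ε homodimer on a CM4 chip at 25 °C, bound amount divided by that of the GLS3000-containing antibody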

T1 sequence (P07766 23-126 limits assumed): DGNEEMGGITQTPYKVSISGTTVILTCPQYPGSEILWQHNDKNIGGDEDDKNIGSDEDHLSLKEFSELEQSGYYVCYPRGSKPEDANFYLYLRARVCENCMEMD

ratio of amount bound vs unaltered GLS3000	Binder
0.21	B1
1.26	B2
0.69	B3
1.07	B4
1.04	B5
1.1	B6
1.1	B7
0.86	B8
1.03	B9
0.99	B10
1.03	B11
1.01	B12
1.23	B13
0.31	B14
0.74	B15
0.53	B16
1.16	B17

ratio of amount bound vs unaltered GLS3000	Binder
1.59	B18
1.58	B19
0.24	B20
0.97	B21
1.55	B22
0.73	B23
0.78	B24
0.76	B25
1	B26
1.32	B27
0.83	B28
1.08	B29
1.17	B30
0.81	B31
1.23	B32
1.1	B33
0.79	B34
